Experimental data as given in a protein production outcome set (Wang et al. 2014).

Experiment: label from the status in PepcDB records

Row | Sequence | protein production
1 | MDLICMYVFKGEESFGESIDVYGDYLIVKVGTEFLAVPKKSIKSVEDGRIVIGEFDEEEARELGRKWLEEKSKPVTLEELKSYGFGEEGE | not failed
2 | SLKKNPRDIVTKKANIRIKTALSKMFNAMAKVTYDIDEADGDVIVNTAFIDKKYLDEAFDILKEAYKKGLGISDRFGIVEENDRIKIQTICAVTLDGIFLRNSVPLIPKYGGILEITEDKERFIDIIGYDGSSLDPHEVFFNFVDCEKTFLAGFREVHRVAREKLEEVLKKLNWNGIKAIGEPNNELYGIGVNKDMCGVVTMGGINPLVLLKENEIPIELKAMHEVVRFSDLKSYKEI | not failed
3 | MASAMLATLELDYFRAVSLYRRRSYERCAELCNALLQAGHDGHVQLFTTKEEEEEEQHQQQQAEHSRFGSNLQRIGPRPRGAAGGGAGAVDSGPSIMMPTWLMEGVWQLKMRALTQRVYVDDLDEDDGGNEATEEVEFERIATAARPGSSIKTAFQPRPLTSQRAQQARSRGAGVAHSSDGRLNSSRPGSAAVARPGTSLSRPGSSLGSRCGTASRIRATSAAAFNVGDATSKLYQASRLNPTIYAERETLVKALFQFLYYHEADVQKAHSLCQAVLEVERQKPSGSTGCTLSWWWQQQMGRCLLALHYPRRAEPFLQQSLTSFPHPDTYLLLSRVYQRIKQPERALLVIGEVVDSRPFDVTYRLEQARIHQAMEQQEDALQLYRLAAKLHPINVESLASIAVGYFYDNNPEMALMYYRRILSLGAQSPELYCNIALCCLYGGQIDLVLPCFQRALATATQPGQKSDIWYNLSFVAVTSGDFNLAKRCLQLCLTSDAQNGAALNNLAVLAAQSGDILGAKSYLNAAKDVMPDAAEVTTNLQFMDVHYKL | failed
4 | MSLSGTDIHTSDYYFLFEEKFRGSRELVKARLRRYIPYFKGCRRVLDIGCGRGEFLELCKEEGIESIGVDINEDMIKFCEGKFNVVKSDAIEYLKSLPDKYLDGVMISHFVEHLDPERLFELLSLCYSKMKYSSYIVIESPNPTSLYSLINFYIDPTHKKPVHPETLKFILEYLGFRDVKIEFFEECEELTKLAKIDSNTVSEEVIRVINENIEKLNRILFGPQDYAIIAKKEGHHHHHH | not failed
5 | MAILFAVVARGTTILAKHAWCGGNFLEVTEQILAKIPSENNKLTYSHGNYLFHYICQDRIVYLCITDDDFERSRAFNFLNEIKKRFQTTYGSRAQTAPPYAMNSEFSSVLAAQLKHHS | not failed
6 | MNLASQSGEAGAGQLLFANFNQDNTEVKGASRAAGLGRRAVVWSLAVGSKSGYKFFSLSSVDKLEQIYECTDTEDVCIVERLFSSSLVAIVSLKAPRKLKVCHFKKGTEICNYSYSNTILAVKLNRQRLIVCLEESLYIHNIRDMKVLHTIRETPPNPAGLCALSINNDNCYLAYPGSATIGEVQVFDTINLRAANMIPAHDSPLAALAFDASGTKLATASEKGTVIRVFSIPEGQKLFEFRRGVKRCVSICSLAFSMDGMFLSASSNTETVHIFKLETVKEKPPEEPTTWTGYFGKVLMASTSYLPSQVTEMFNQGRAFATVRLPFCGHKNICSLATIQKIPRLLVGAADGYLYMYNLDPQEGGECALMKQHRLDGSLETTNEILDSASHDCPLVTQTYGAAAGKGTYVPSSPTRLAYTDDLGAVGGACLEDEASALRLDEDSEHPPMILRTD | failed
7 | AQTRLLIQNRLVAQRDEFDNVFHSIRDGVITYDTDFRIHFTNRSLLKMLHLPKDEAARPYEGLPAGSIFKIYNNGKEILRPMLKQVVTEESSVVIPENSFMQEVHSGSYFPVSGEVVPIRAHGKITGMALSARNIS | failed
8 | MGRAHVSTHELVAGRYRLFEVVQRETNRVCWSGEDATTGRPCLVTRIELPEGRAGEAARRAPGRVIRTGETMASLCPGRIAPVLDAVVADGMLWTVTEWVAGVPLGDLLDRRGAFGCARAARVGLELLAVLEAAHTHGVTHGELSPGQVFVREEGSVLVTGFGLAGATLAPRLTAPAYASPEQARDERIGPAADLWTLGAILYTMVEGRPPFRDRGRPEATLKGVDRLPLRTPVRAGPLAQAVTGLLRKNSRERPTRPVVRAALARALAEDPGTAVTEVTTGPGVRGGYAAARTAGRDRSRRTVAAGTALAVVTVAVAVLADLAVTDGLPGRGDGAAAGARQRPSASAAPPTGSAPAAASPGSPSSPAGRPSASASPSKPGVPAPAGFRRYDAPEGFSVALPEGWRRLDTASAPGGAYRVVFGASGDPRTLAVTYSRRAGADPVVVWRDDVEPGLARSDGYRRIGEIRSTTYRGRAAADMEWLVRDDGTRLRTFGRGFLLGGGRSFSLRWTTPAGDWDDSANERALAAFLGTFRDGAA | failed
